Results: article PMC7804290
Numbering of substitutions follows the chain as printed.

B1: scaffold 1 (RMP at -3) (structured_RNA)
RNA 1: UUUUCAUGCAUCGCGUAGGCUCAUACCGUAUUGAGACCUUUUGGUCUCAAUACGGUA
RNA 2: UGAGCCUACGCGAUG
modifications: remdesivir monophosphate (RMP, 1'-cyano-4-aza-7,9-dideazaadenosine) at position 13 of strand 2, written as A
B2: scaffold 3 (AMP at -4) (structured_RNA)
RNA 1: B1 RNA 1 with U11C, C12U
RNA 2: UGAGCCUACGCAGUG
B3: scaffold 2 (RMP at -4) (structured_RNA)
RNA 1: B1 RNA 1 with U11C, C12U
RNA 2: UGAGCCUACGCAGUG
modifications: remdesivir monophosphate (RMP, 1'-cyano-4-aza-7,9-dideazaadenosine) at position 12 of strand 2, written as A (oligo R-4)

Key:
[1] = target: T1, nsp12 (RdRp catalytic subunit);nsp8;nsp7 (SARS-CoV-2;SARS-CoV-2;SARS-CoV-2, UniProt P0DTD1;P0DTD1;P0DTD1 4393-5324;3943-4140;3860-3942, ||); experiment: cryo-EM (complex isolated by SEC); conditions: protein: recombinant;recombinant;recombinant; copies: 1;2;1
[2] = target: T1, nsp12 (RdRp catalytic subunit);nsp8;nsp7; experiment: cryo-EM (complex isolated by SEC); 1 mM Mg2+; AMP control for structure 2; conditions: protein: recombinant;recombinant;recombinant; copies: 1;2;1

| Binder | binding result [1] | binding result [2] |
| --- | --- | --- |
| B1 | binds |  |
| B2 |  | binds |
| B3 | binds |  |
